Entries after “also recorded” stand apart in the source; their conditions may differ. The star is where a group is joined. Dnp = O=[N+]([O-])c1ccc(*)c([N+](=O)[O-])c1; Mca = COc1ccc2c(CC(=O)*)cc(=O)oc2c1
What was measured:
[1] = system: bacterial rhomboid protease GlpG; details: ref [26], [27]; cited from earlier work
recombinant human RHBDL4 [2] = biological target: T1, recombinant human RHBDL4 (Homo sapiens, UniProt Q8TEB9); test: FRET-based cleavage assay with fluorescent (IQ / KSp207) substrates; assay type: biochemical; details: for RHBDL4-catalyzed activity towards GlpG/PARL model substrates: in vitro cleavage assay; for kcat: average ± S.E.M.
T1 construct: The entire RHBDL4 and RHBDL4-S144A cDNAs were subcloned into the pcDNA3.1 vector; 6xHis (C, cleaved yes); made in house; host or cells: Freestyle 293-F cells (transient transfection, pcDNA3.1-HisA)
T1 sequence (Q8TEB9 1-315): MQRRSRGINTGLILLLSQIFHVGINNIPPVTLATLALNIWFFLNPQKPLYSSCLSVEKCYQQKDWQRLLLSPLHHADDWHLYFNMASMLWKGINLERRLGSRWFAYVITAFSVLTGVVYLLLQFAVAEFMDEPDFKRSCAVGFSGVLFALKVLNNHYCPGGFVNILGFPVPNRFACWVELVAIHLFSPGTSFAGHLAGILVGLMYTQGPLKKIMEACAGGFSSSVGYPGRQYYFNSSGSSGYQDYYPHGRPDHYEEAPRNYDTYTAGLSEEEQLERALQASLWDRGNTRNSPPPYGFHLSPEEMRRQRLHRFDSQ
Description: Figure 2 Kinetic characterization of recombinant human RHBDL4.A, schematic representation of the FRET-based cleavage assay using internally quenched (IQ) substrates. B, saturation curves of RHBDL4 using the fluorescent IQ substrates, IQ6, IQ41, and IQ46. C, pH dependence of the RHBDL4 protease activity using substrates IQ6, IQ41, and IQ46. D, salt concentration dependence of the RHBDL4 protease activity using substrates IQ6, IQ41, and IQ46. All the assays were performed in triplicate, and data points are represented by the average ± S.E.M. TEXT PRINTED IN THE PICTURE: (B) IQ 6: KM(μM) 10.73±2; Kcat(hr^-1) 7.33±0.6 | (B) IQ 41: KM(μM) 5.63±2; Kcat(hr^-1) 2.41±0.6 | (B) IQ 46: KM(μM) 7.19±1; Kcat(hr^-1) 3.62±0.8
(§1) The reaction setup in our FRET assay enabled the direct determination of Michaelis–Menten kinetic parameters Km and kcat for the cleavage of IQ6, IQ41, and IQ46 by RHBDL4. Our fluorescence reading data were converted to μM/h using the standard calibration curve for all three IQ substrates, and the correction factor for the inner filter effect was applied. We confirmed that purified RHBDL4 followed Michaelis–Menten kinetics with KmIQ6=10.73±2μΜ , KmIQ41=5.63±2μΜ , and KmIQ46=7.19±1μΜ and kcatIQ6=7.33±0.6h^−1 , kcatIQ41=2.41±0.6h^−1 , and kcatIQ46=3.62±0.08h^−1 (Figs. 2B and S2B).
Our FRET-based assay is a suitable platform for optimizing conditions that enhance RHBDL4 protease activity. To this end, we selected the optimal pH for RHBDL4 protease activity and performed FRET-based assays with IQ6, IQ41, and IQ46 at a pH range of 5 to 10. […] The optimal salt concentration for the RHBDL4 protease activity was also tested in the range of 100 to 300 mM (Fig. 2D). We conclude that with the IQ6, IQ41, and IQ46 substrates, RHBDL4 had satisfactory activity in a salt concentration range of 100 to 300 mM.
Figure 5 In vitro inhibition of RHBDL4 activity with TMED7-derived peptidyl α-ketoamides.A, schematic representation of the peptidyl-α-ketoamide inhibitor, compound 3 and 4. B, representative inhibition curve derived from measuring rates of RHBDL4 proteolysis of the fluorescent substrate IQ6 with increasing concentrations of compound 3. C, same as (B), except inhibition curve was derived from using increasing concentrations of compound 4. […] Reactions were quenched with 1 RLaemmli buffer and loaded on 12% SDS-PAGE gel. Post-transfer membranes were visualized using a fluorescence Cy3 filter and by Western blotting using an α-His antibody. E, saturation curve of RHBDL4 using fluorescent substrate, KSp207. For (B and C), all inhibitors were pre-incubated with RHBDL4 for 1 h and allowed to react with the IQ6 substrate for 2 h. […]
(§2) The enzymatic assay was performed as previously described (Arutyunova et al., 2014, ([26])). […] The FRET-based cleavage assay was conducted in a fluorescence multiwell plate reader (SynergyMx, BioTek). Upon excitation at 320 nm, the emission intensity at 400 nm was recorded for 2 h at minimal intervals under shaking conditions and plotted using the GraphPad PRISM software. The initial velocities were defined as the slopes of the curve of the generated product as a function of time. The plots of the generated product against the corresponding substrate concentration were fitted with the Michaelis–Menten equation. Catalytic parameters were extrapolated using GraphPad PRISM. […] The samples were desalted using C18 tips (Rainin), eluted in 80% acetonitrile, and dried down in a vacuum centrifuge prior to mass spectrometry analysis.
All the calculations for Km, Vmax, and Kcat for RHBDL4 and its mutants were performed using GraphPad PRISM.

RHBDL4-S144A = test: FRET-based cleavage by inactive RHBDL4-S144A; assay type: biochemical, human; details: pH 8, 37 °C
Description: as §1
Figure 3 Dependence of conserved rhomboid motifs on RHBDL4 protease activity.A, RHBDL4 representation highlighting TM1–6 (in green), the VBM- and UIM-binding motifs (in blue), the conserved rhomboid motifs (WR and Gx3G), and the serine-histidine catalytic dyad (in pink). The table indicates the RHBDL4 region, the conserved rhomboid motifs, and amino acid mutation. The RHBDL4 proteolytic activity. B, size-exclusion chromatography profile of RHBDL4-AR and RHBDL4-Ax3G, being eluted as a monomeric protein. C, coomassie staining and Western blotting using an α-His antibody of concentrated purified RHBDL4-AR and RHBDL4-Ax3G. D, activity profiles of the WT RHBDL4 and mutant RHBDL4-S144A, RHBDL4-AR, and RHBDL4-Ax3G proteins, as measured by cleavage of the fluorescent substrate IQ6. Assay was performed in triplicate (n = 3), and data points are represented by the average ± S.E.M. Statistically significant differences compared to WT RHBDL4 are indicated (pairwise Dunnett's test followed by Bonferroni's post hoc analysis; ∗p < 0.05, n.s., no significance).
(§3) The enzymatic assay was performed as previously described (Arutyunova et al., 2014, ([26])). […] The FRET-based cleavage assay was conducted in a fluorescence multiwell plate reader (SynergyMx, BioTek). Upon excitation at 320 nm, the emission intensity at 400 nm was recorded for 2 h at minimal intervals under shaking conditions and plotted using the GraphPad PRISM software. […]

recombinant human RHBDL4 [3] = biological target: T1, recombinant human RHBDL4; test: Mass spectrometry identification of cleavage sites in IQ6; assay type: biochemical; details: 1.5 μM RHBDL4, 10 μM IQ6, 4 h, room temperature, quenched with 8 M GuHCl; MS/MS
Description: as §2
Supplemental Information 4. […] (B) Depiction of IQ6 cleavage sites as determined from tandem mass spectrometry (MS/MS). (C) Peptide sequence of GlpG-derived and PARL-derived fluorescent substrates IQ4 and IQ15, respectively. (D) Activity profiles of the wild-type RHBDL4 and mutant RHBDL4-S144A, as measured by cleavage of the fluorescent substrates IQ4 and IQ15. Assays was performed in triplicate, and data points are represented by the average ± S.E.M.

RHBDL4-Ax3G = test: FRET-based cleavage of IQ6 by RHBDL4-Ax3G mutant; assay type: biochemical, human; details: IQ6 substrate; n = 3
Description: (§4) All mutants had robust expression on day 3 post-transfection of Freestyle 293-F cells, when cells were harvested for purification. RHBDL4 contains two motifs that are well conserved among the rhomboid superfamily, the WR motif in L1 and the Gx3G motif in TM domain 6 (Fig. S3, A and B) ([8]). Both motifs are required for RHBDL4-mediated ERAD function (Fleig et al. 2012). We predicted that both AR and Ax3G mutants would result in lower RHBDL4 activity. To that end, RHBDL4-AR and RHBDL4-Ax3G were expressed and purified using affinity Ni-NTA column followed by SEC (Fig. 3, B and C). […]
(§5) Figure 3 Dependence of conserved rhomboid motifs on RHBDL4 protease activity.A, RHBDL4 representation highlighting TM1–6 (in green), the VBM- and UIM-binding motifs (in blue), the conserved rhomboid motifs (WR and Gx3G), and the serine-histidine catalytic dyad (in pink). […] D, activity profiles of the WT RHBDL4 and mutant RHBDL4-S144A, RHBDL4-AR, and RHBDL4-Ax3G proteins, as measured by cleavage of the fluorescent substrate IQ6. […]
as §3

RHBDL4-AR = test: FRET-based cleavage of IQ6 by RHBDL4-AR mutant (WR motif); assay type: biochemical, human; details: IQ6 substrate; n = 3
Description: as §4, §5, §3

[4] = system: mammalian rhomboid protease PARL; details: ref [26], [27]; cited from earlier work

mca-RPKPYAvWMK(dnp) [IQ4, GlpG model substrate mca-RPKPYAvWMK(dnp)]
cleavage by GlpG [1]: cleave | RHBDL4-catalyzed activity towards GlpG/PARL model substrates (recombinant human RHBDL4 [2]; triplicate): did not observe any RHBDL4-catalyzed activity

Mca-Arg-Pro-Pro-Gly-Phe-Ser-Ala-Phe-Lys (DNP)-OH (Mca-RPPGFSAFK(Dnp)-OH; SMILES COc1ccc2c(CC(=O)N[C@@H](CCCNC(=N)N)C(=O)N3CCC[C@H]3C(=O)N3CCC[C@H]3C(=O)NCC(=O)N[C@@H](Cc3ccccc3)C(=O)N[C@@H](CO)C(=O)N[C@@H](C)C(=O)N[C@@H](Cc3ccccc3)C(=O)N[C@@H](CCCCNc3ccc([N+](=O)[O-])cc3[N+](=O)[O-])C(=O)O)cc(=O)oc2c1) [IQ6, fluorescent internally quenched substrate mca-…(dnp)]
cleavage by inactive RHBDL4-S144A (increase in fluorescence / activity) (RHBDL4-S144A): negligible increase in fluorescence; also recorded: negligible activity | N-terminal cleavage products (recombinant human RHBDL4 [3]): mca-RPPGFSA and mca-RPPGFS | enzymatic cleavage activity compared with WT RHBDL4 (RHBDL4-Ax3G): retained enzymatic cleavage activity at levels comparable to WT RHBDL4 | decrease in activity compared with WT RHBDL4 (RHBDL4-AR): ~6 fold | kcat (recombinant human RHBDL4 [2]; 37 °C, pH 8.0, triplicate): 0.00204 ± 0.00017 s⁻¹ | cleavage rate/efficiency relative to other substrates (recombinant human RHBDL4 [2]; FRET-based assay): exhibited the highest cleavage rate for RHBDL4 proteolysis; also recorded: maximum activity | faster kinetics in comparison to IQ41 (recombinant human RHBDL4 [2]; IQ6 versus IQ41): three-fold | faster kinetics in comparison to IQ46 (recombinant human RHBDL4 [2]; IQ6 versus IQ46): two-fold | kcat (recombinant human RHBDL4 [2]; Michaelis-Menten, 1.5 μM RHBDL4, 37 °C, 2 h, pH 8.0, 150 mM NaCl, 0.1% DDM, triplicate): 0.00204 ± 0.00017 s⁻¹ | catalytic rate (cleavage rate) (recombinant human RHBDL4 [2]; approximate, discussion): approximately 7 /h | pH of highest RHBDL4 protease activity (recombinant human RHBDL4 [2]; pH range 5 to 10, triplicate): 8 | salt concentration range with satisfactory activity (recombinant human RHBDL4 [2]; salt tested 100 to 300 mM, triplicate): 100 to 300 mM

mca-AVFLSAVAG(dnp) [IQ15, PGAM-derived PARL model substrate mca-…(dnp)]
cleavage by PARL [4]: cleave | RHBDL4-catalyzed activity towards GlpG/PARL model substrates (recombinant human RHBDL4 [2]; triplicate): did not observe any RHBDL4-catalyzed activity
